Laboratory results published in US20140271651A1 (AbbVie / Abbott, published 2014).

Assays:
bovine serum albumin = target: T1, bovine serum albumin (bovine, UniProt P02769 25-607); assay: EIA, supernatant 1:25 captured on sheep anti-mouse IgG Fc, BSA in place of antigen
T1 construct: also called BSA
Description: (§1) Cell supernatant samples were analyzed for anti-GP73 antibodies by EIA. Sheep anti-mouse IgG Fc (Jackson Immunoresearch) was coated on 96 well micro-titer EIA plates at 1 μg/mL. After the capture reagent was coated on the solid phase, it was removed and the plates were blocked using a BSA/PBS block solution. The wells were washed with distilled water and cell supernatants were added to the blocked plates and allowed to incubate at room temperature for at least one hour. A mouse monoclonal antibody 14H4-23 (Drexel University) was used a positive control. The anti-mouse IgG Fc captured the anti-GP73 mouse antibody from the supernatant. Following the incubation, the supernatants were washed off using distilled water. An irrelevant mouse-human chimeric antibody was added to all wells and incubated at room temperature for 30 min to block any captured mouse antibodies that react with the human IgG Fc fusion protein linked to the GP73 antigen. The wells were washed with distilled water and GP73-hFc was added to the plates at 200 ng/mL and incubated for 30 min. Following this incubation, the antigen was washed from the plates using distilled water. Biotin labeled goat anti-GP73 was added to the plates at 200 ng/mL and incubated for 30 min at room temperature. The plates were washed and streptavidin-HRPO (Jackson Immunoresearch) (diluted to approximately 200 ng/mL) was added to the plates and allowed to incubate for 30 min. The plates were washed with distilled water and OPD substrate was used as the chromagen to generate signal. Plates were read at 492 nm and the results were analyzed.
(§2) Positive clones were expanded to 24 well plates in IMDM supplemented with 10% FBS and HT supplement. Following 5-14 days growth, the 24 well cultures were evaluated by EIA in the same manner as previously described, except the supernatant samples were titrated against GP73-hFc and BSA to eliminate non-specific protein binders. Once again the clones generating signal at least 3 times greater than background were considered positive and selected for further evaluation.

[1] = target: T2, GP73-hFc (human GP73 amino acids 63 to 400 fused at the C-terminus to human IgG1 Fc) (human); assay: EIA, supernatant 1:25 captured on sheep anti-mouse IgG Fc, GP73-hFc, biotin goat anti-GP73
T2 construct: Expressed in HEK293F, CHO or HepG2 cells; the host is named under assay; also called HEK expressed GP73-hFc; CHO expressed GP73-hFc
T2 chain: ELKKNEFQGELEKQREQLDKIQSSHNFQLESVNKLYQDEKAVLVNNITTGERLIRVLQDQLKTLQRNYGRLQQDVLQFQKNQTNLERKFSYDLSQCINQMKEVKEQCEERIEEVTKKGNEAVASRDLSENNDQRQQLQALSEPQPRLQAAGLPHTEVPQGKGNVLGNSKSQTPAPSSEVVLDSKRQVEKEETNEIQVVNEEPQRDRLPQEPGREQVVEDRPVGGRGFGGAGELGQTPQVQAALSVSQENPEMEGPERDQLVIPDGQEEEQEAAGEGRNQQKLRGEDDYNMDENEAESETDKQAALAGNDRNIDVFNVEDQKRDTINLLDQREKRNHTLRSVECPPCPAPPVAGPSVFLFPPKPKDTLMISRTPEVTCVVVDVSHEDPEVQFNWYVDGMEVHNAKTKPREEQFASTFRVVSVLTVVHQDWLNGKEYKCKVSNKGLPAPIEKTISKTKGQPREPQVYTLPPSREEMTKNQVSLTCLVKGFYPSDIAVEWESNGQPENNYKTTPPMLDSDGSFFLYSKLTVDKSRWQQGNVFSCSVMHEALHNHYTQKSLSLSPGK
Description: as §1, §2

[2] = target: T2, GP73-hFc (human GP73 amino acids 63 to …); assay: SPR Biacore 2000, mAb captured on rabbit anti-mouse IgG, HEK GP73-hFc analyte 0.412-100 nM, 1:1 fit
Description: First, an approximately 13,000-15,000 RU rabbit anti-mouse IgG Capture Biosensor was created by amine-coupling rabbit anti-mouse IgG antibody (GE Healthcare) to a CM5 biosensor chip (GE Healthcare) via EDC/NHS/ethanolamine chemistry provided in an Amine Coupling Kit (GE Healthcare) after pre-treating the biosensor with duplicate injections of 100 mM HCl, 50 mM NaOH, and 0.1% SDS. Purified GP73 antibody and antigen (HEK GP73-hFc) were diluted into a running buffer (hereinafter “running buffer”) composed of HBS-EP buffer (GE Healthcare) supplemented with 0.1% BSA and 0.1% CM-Dextran. Each GP73 antibody was diluted to 1 μg/mL. The GP73-hFc antigen was diluted to concentrations of 0.412 to 100 nM using a 3-fold dilution series assuming an oligomeric molecular weight of 490 kDa (Abbott Laboratories).
The GP73-hFc antigen program was as follows. After equilibrating the rabbit anti-mouse IgG Capture Biosensor for 3 min at 5 μL/minute with running buffer, GP73 antibody (7-14 μL) was injected over individual flow cells with one flow cell being left blank as a reference flow cell. The flow cells were washed with running buffer for 3 min at a flow rate of 60 μL/min. 150 μL of HEK293 expressed GP73-hFc antigen at a random concentration was injected across the biosensor. The biosensor was subsequently re-equilibrated with running buffer for 5 min at a flow rate of 60 μL/minute. All biosensor surfaces were regenerated with one 30 μL injection of 10 mM glycine, pH 1.7 (GE Healthcare), at a flow rate of 10 μL/minute. All concentrations of HEK293 expressed antigen were tested in duplicate. The binding kinetics (association and dissociation) were monitored via sensorgrams during antigen injection and running buffer re-equilibration. The sensorgrams were double-referenced and fit to a 1:1 binding model using Scrubber 2.0 software (BioLogic Software Pty Ltd., Australia) to determine association and dissociation rates, as well as overall KD. Standard errors of determined values are reported in parentheses with respect to the smallest number place value.

[3] = target: T2, GP73-hFc (human GP73 amino acids 63 to …); assay: sandwich EIA, rabbit anti-GP73 coated 1 ug/mL, GP73-hFc 200 ng/mL, supernatant 1:125, HRP goat anti-mouse IgG Fc
Description: as §1
The 24 well cultures were then evaluated by EIA for their ability to form a sandwich with the rabbit anti-GP73 used as a capture reagent coated directly on the solid phase. The same EIA protocol previously described was used, except rabbit anti-GP73 antibody was coated at 1 μg/mL, the GP73-hFc was tested at 200 ng/mL, and a HRP labeled goat anti-mouse IgG FC antibody was used as the conjugate reagent to generate signal.

[4] = target: T2, GP73-hFc (human GP73 amino acids 63 to …); assay: EIA, supernatant mAb captured on sheep anti-mouse IgG Fc, GP73-hFc 200 ng/mL, biotin goat anti-GP73/streptavidin-HRPO; background 0.06
Description: as §1

T1 sequence (P02769 25-607 limits assumed): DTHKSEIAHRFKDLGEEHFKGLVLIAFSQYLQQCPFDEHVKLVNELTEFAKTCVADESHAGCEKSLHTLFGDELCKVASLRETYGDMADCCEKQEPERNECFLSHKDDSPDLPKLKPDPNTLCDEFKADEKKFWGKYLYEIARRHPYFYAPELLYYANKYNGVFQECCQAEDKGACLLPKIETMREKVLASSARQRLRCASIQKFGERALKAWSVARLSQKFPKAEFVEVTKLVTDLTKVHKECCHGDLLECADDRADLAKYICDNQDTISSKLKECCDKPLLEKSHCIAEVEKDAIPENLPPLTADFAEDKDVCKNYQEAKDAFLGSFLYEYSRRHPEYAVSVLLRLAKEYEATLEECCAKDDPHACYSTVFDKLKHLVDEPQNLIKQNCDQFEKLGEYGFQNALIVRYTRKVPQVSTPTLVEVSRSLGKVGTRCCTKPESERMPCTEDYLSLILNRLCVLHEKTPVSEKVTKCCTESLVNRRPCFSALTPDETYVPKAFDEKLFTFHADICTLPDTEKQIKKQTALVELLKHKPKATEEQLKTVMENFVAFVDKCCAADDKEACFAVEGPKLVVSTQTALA

Row | Binder | BSA Background OD (A492) (bovine serum albumin) | GP73-hFc OD (A492) [1] | Kd [2] [nM] | kon [2] [M⁻¹ s⁻¹] | GP73-hFc OD (A492) [3] | OD (A492) [4] | koff [2] [s⁻¹]
1 | anti-GP73 monoclonal antibody 1B-4971 (antibody, V domains shown, Biotin labelled in some assays; also called mAb 1B-4971; 1B-4971-Bt) VH: QVQLQQSGPALVKPGASVKMSCKASGYTFTNYVIHWVKQKPGQGLERIGYIWPYNDGTKFNEKFKGKATLTSDKSSSTAYMELSSLTSEDSAVYYCSSQQLAYWGQGTTLTVSS VL: not shown | 0.1 OD (A492) | 2.1 OD (A492) | ≤ 0.002 | 3.9e+06 | 1.6 OD (A492) | 1.79 OD (A492) | 
2 | anti-GP73 monoclonal antibody 1B-4863 (antibody, V domains shown, Biotin labelled in some assays; also called mAb 1B-4863; 1B-4863-Bt) VH: QVQLKESGPGLVAPSQSLSITCTVSGFSLTSYGVHWVRQSPGKGLEWLGVIWTGGSTNYNSALMSRLSISKDNSESQVFLKVNSLQTDDTGMYYCARDPGTDYFDYWGQGTTLTVSS VL: DIVMTQSHKFMSTSIGDRVSISCKASQDVSIDVSWYQQKPGQSPTLLIYSASYRYIGVPDRFTGSGSGTAFTFTISSVQAEDLAIYYCQQHFTTPLTFGAGTKLELKR | 0.06 OD (A492) | 1.61 OD (A492) | 0.12 | 2.06e+06 | 1.41 OD (A492) | 1.44 OD (A492) | 0.00025
3 | anti-GP73 monoclonal antibody 1B-3440 (antibody, V domains shown, Biotin labelled in some assays; also called mAb 1B-3440; 1B-3440-Bt) VH: EVQLVETGGGLVQPKGSLKLSCAASGFTFNTNAMNWVRQAPGKGLEWVARIRTKRYNYTTFYADSVKDRFTISRDDSQSMLFLQMNNLKTEDTAMYYCVTGGTGTFDYWGQGTTLTVSS VL: EIVLTQSPTTMPASPGEKVTFTCSASSGISSNYLHWYQLKPGFSPKLLIYRTSNLASGVPARFSGGGSGTSYSLTIGTMEAEDVATYYCQQGFSIPLTFGAGTKLELKR | 0.09 OD (A492) | 1.51 OD (A492) | 0.091 | 1.98e+06 | 0.76 OD (A492) | 1.46 OD (A492) | 0.00018
